According to patent US5856161, “Tumor necrosis factor receptor-I-associated protein kinase and methods for its use” (Research Development Foundation, dated 1999):

Assays:
cdk4 = cdk4 (human, UniProt P11802); test: precipitation of U937 cell extracts with p13^suc1 -agarose, immunoblot
Experimental: U937 cells (4×10^6) were lysed and precipitated with p13^suc1 agarose. Beads were collected by centrifugation, washed with lysis buffer, and boiled in the presence of SDS-sample buffer. […] Immunoreactive bands were detected using horseradish peroxidase-conjugated secondary antibodies and the Enhanced Chemiluminescence system (ECL). […] Equal amounts of U937 cell lysates were incubated with 25 μg of either GST bound to glutathione agarose (−) or p13^suc1-agarose (+) for 1 hour at 4° C. with shaking. The beads were collected by centrifugation, and the supernatant was once more centrifuged. An equal volume of the supernatant was affinity precipitated with GST-p60Δ15. The precipitates were washed extensively, and in vitro kinase assays with histone H1 (5 μg) were performed as described below. Proteins were separated by 8% SDS-polyacrylamide gel electrophoresis and analyzed by a PhosphorImager and ImageQuant software. […] Equal amounts of U937 cell lysates were incubated with either GST bound to glutathione agarose (−) or p13^suc1-agarose (+) for 1 hour at 4° C. with shaking. The beads were collected by centrifugation, and the supernatant was once more centrifuged. An equal volume of the supernatant was affinity precipitated with either GST-p60Δ8 or GST-p60Δ15. The precipitates were washed extensively, and in vitro kinase assays with Rb^110 (0.2 μg) were performed as described below.

cdk2 = cdk2 (human (endogenous, U937 cells); not …, UniProt P24941); test: in vitro translated 35S-labelled protein, pull-down with GST-p80CD on glutathione agarose
Experimental: (§1) U937 cells lysates (15×10⁶/assay) were prepared and affinity precipitated with the indicated fusion protein as described below. Whole cell extracts were prepared from 2×10⁶ U937 cells by boiling the cells in 100 μl of SDS-sample buffer. Proteins were resolved by 8.5% SDS-polyacrylamide gel electrophoresis, transferred to PVDF membrane, and probed with the indicated antibodies. The mock reaction contains GST-p60Δ8 without U937 cell lysates. […] The samples were subjected to 8.5% SDS-polyacrylamide gel electrophoresis and analyzed by a PhosphorImager. Ten percent of total ^35S-labeled protein (10% input) added to each binding reaction was loaded as a standard. […] The conditions utilized for this experiment were similar to those previously described (Dyson et al., 1989). Briefly, U937 cells were either treated without or with 0.1 nM TNF for 5 minutes. […] Precipitates bound to protein A/G sepharose beads were collected by centrifugation and washed four times in lysis buffer and one time in kinase buffer. The samples were subjected to 8.5% SDS-polyacrylamide gel electrophoresis and analyzed by a PhosphorImager and ImageQuant software.

cdc2 = cdc2 (human, UniProt P06493); test: as above
Experimental: as §1

binding result (cdk4) | binding result (cdk2) | binding result (cdc2) | Binder
no binding | – | – | p13^suc1 -agarose (other) SKSGVPRLLTASERERLEPFIDQIHYSPRYADDEYEYRHVMLPKAMLKAIPTDYFNPETGTLRILQEEEWRGLGITQSLGWEMYEVHVPEPHILLFKREKDYQMKFSQQRGG
– | no binding | no binding | GST-p80CD (receptor) KKKPLCLQREAKVPHLPADKARGTQGPEQQHLLITAPSSSSSSLESSASALDRRAPTRNQPQAPGVEASGAGEARASTGSSDSSPGGHGTQVNVTCIVNVCSSSDHSSQCSSQASSTMGDTDSSPSESPKDEQVPFSKEECAFRSQLETPETLLGSTEEKPLPLGVPDAGMKPS
